How the values were obtained:
[1] = target: A. fulgidus HypA, tag-free (Archaeoglobus fulgidus) (UniProt O28904); test: SEC-MALS; equimolar AfHypA and AfHypB preloaded with GDP (monomeric form); Superdex-75 HR10/30, 50 mM Tris pH 7.5, 0.2 M NaCl, 1 mM TCEP, room temperature; peaks checked by SDS-PAGE
[2] = target: A. fulgidus HypB, tag-free (Archaeoglobus fulgidus); test: SEC-MALS; AfHypB (0.5 mM) preloaded with 5 mM GMPPNP and 1 mM NiCl2, excess removed; Superdex-75 HR10/30, 50 mM Tris pH 7.5, 0.2 M NaCl, 5 mM MgCl2, 1 mM TCEP

Sequence of UniProt O28904 (O28904 whole entry): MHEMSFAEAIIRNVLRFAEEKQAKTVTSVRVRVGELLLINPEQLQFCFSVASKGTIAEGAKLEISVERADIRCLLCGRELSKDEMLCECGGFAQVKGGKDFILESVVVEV

A. fulgidus HypB, tag-free (natural protein)
stoichiometry N [1]: 1
stoichiometry N [2]: 2

Reference: publication PMC3287977
